Test results: publication PMC3012730, “The Actinobacillus pleuropneumoniae HMW1C-Like Glycosyltransferase Mediates N-Linked Glycosylation of the Haemophilus influenzae HMW1 Adhesin” (PLoS ONE, 2010)

Legend:
[1] = tested on: O=c1ccn([C@@H]2O[C@H](COP(=O)(O)OP(=O)(O)O[C@H]3O[C@H](CO)[C@H](O)[C@H](O)[C@H]3O)[C@@H](O)[C@H]2O)c(=O)[nH]1; test: purified protein; conditions: apparent Km, fixed acceptor protein His-HMW1ct (standard 3.2 µM), 50 mM HEPES pH 8.0, 50 mM KCl, 5 mM MgCl2, room temperature
[2] = tested on: O=c1ccn([C@@H]2O[C@H](CO[P@@](=O)(O)O[P@@](=O)(O)O[C@H]3O[C@H](CO)[C@@H](O)[C@H](O)[C@H]3O)[C@@H](O)[C@H]2O)c(=O)[nH]1; test: purified protein; conditions: apparent Km, fixed acceptor protein His-HMW1ct (standard 3.2 µM), 50 mM HEPES pH 8.0, 50 mM KCl, 5 mM MgCl2, room temperature

Substance “ApHMW1C (Actinobacillus pleuropneumoniae serovar 5b str. L20)” has a Km [1] of 147.5 ± 24.8 µM, a Vmax [1] of 0.0643 µmol/min/mg and a kcat [1] of 0.077 ± 0.005 s⁻¹. The kcat/Km [1] was 520 ± 210 M⁻¹ s⁻¹, the Km [2] was 38.9 ± 5.8 µM and the Vmax [2] was 0.109 µmol/min/mg. For the same substance, the kcat [2] was 0.13 ± 0.005 s⁻¹ and the kcat/Km [2] was 3300 ± 800 M⁻¹ s⁻¹.
